Data on two molecules can be found in patent US20190202901A1 (PIERRE FABRE MEDICAMENT, published 2019).

Where two headings read alike, the source gives them in different places.

Experiment [1] addresses T1, soluble recombinant human IGF-1R hetero-tetramer with C-terminal 10-His tag (R&D Systems 305-GR-50) (human, UniProt P08069 31-736; P08069 741-932).
T1 construct: domain: alpha chain;domain: extracellular domain of the beta chain; Captured on an anti-His antibody chip; also called recombinant soluble human-IGF-1R; h-IGF-1R
Briefly: SPR Biacore X100, Ln(2)/koff. On the procedure:
(§1) The dissociation constants (KD) of the binding of the antibodies on a recombinant soluble human-IGF-1R were defined by the ratio between the dissociation rate (koff) and the association rate (kₒₙ). The kinetic experiments were run on a Biacore X100 device using a CM5 sensor chip activated by a mouse anti-Tag His monoclobnal antibody. Around 12000 RU of antibodies are chemically grafted on the carboxymethyldextan matrix using the amine kit chemistry.
(§2) The experiments were carried out at 25° C. with a flow rate of 30 μl/min using the HBS-EP+ buffer (GE Healthcare) as the running and sample dilution buffer.
The single cycle kinetic scheme was used to define the kinetic parameters of the binding of the anti-IGF-1R antibodies on a soluble recombinant human IGF-1R captured by its two C-terminal 10 Histidine-tag. [0637] 1—A solution of a soluble recombinant version of the human IGF-1R hetero-tetramere: 2a chains and the extracellular domains of 2β chains expressed with an additional C-terminal 10-His tag (R&D Systems catalogue number 305-GR-50) was injected during one minute on the second flowcell at a concentration of 10 μg/ml. […] [0638] 2—After the capture phase, either the running buffer was injected 5 times (90 s each injection) or a growing range of 5 concentrations of one of the six antibodies was injected (90 s each injection) on both flowcells. […]

The target in experiment [2] is T1, soluble recombinant human IGF-1R …. Briefly: SPR Biacore X100, single cycle kinetics, His-captured human IGF-1R (about 160 RU), 1:1 model. On the procedure:
(§3) The recognition experiments were run on a Biacore X100 device using a CM5 sensor chip activated by an anti-Tag His antibody (His capture kit GE Healthcare catalogue number 28-9950-56). More than 11000 RU of antibodies are chemically grafted on the carboxymethyldextan matrix using the amine kit chemistry. The experiments were carried out at 25° C. with a flow rate of 30 μl/min using the HBS-EP buffer (GE Healthcare) as the running and sample dilution buffer.
(§4) A solution of a soluble recombinant version of the IGF-1R hetero-tetramere composed of 2a chains and the extracellular domains of 2β chains expressed with an additional C-terminal 10-His tag, based either on the sequence of the human (R&D Systems catalogue number 305-GR-50) or of the one of cynomolgus (produced in house) was injected 1 minute on the second flowcell at a dilution defined to capture around 160 RU of antigen. […] At the end of the fifth injection the running buffer was passed in order to define the dissociation rate.
(§5) The resulting sensorgrams were analysed using the Biaevaluation software with a 1:1 model. […] The quality of the fitting was assessed by a Chi2/Rmax ratio lower than 0.05 RU.

Experiment [3] shares this target. The experiment is described as follows: SPR Biacore X100, His-captured recombinant human IGF-1R. On the procedure:
as §3, §4, §5

Experiment [4] concerns the target T2, monkey IGF-1R on COS-7 cells (monkey (African green monkey)). The experiment is described as follows: cell-based or functional assay.
Experiment [5] has as its target T3, human IGF-1R, native, on cells (MCF-7, hIGF-1R transfected cells, tumor sections, primary normal cells) (human, UniProt P08069 31-1367). Briefly: cell-based or functional assay.
The target of experiment [6] is T1, soluble recombinant human IGF-1R …. Briefly: SPR Biacore X100, His-captured soluble h-IGF-1R (about 600 RU), mean of 4 experiments. On the procedure:
as §1, §2
The single cycle kinetic scheme was used to define the kinetic parameters of the binding of the anti-IGF-1R antibodies on a soluble recombinant human IGF-1R captured by its two C-terminal 10 Histidine-tag. [0637] 1—A solution of a soluble recombinant version of the human IGF-1R hetero-tetramere: 2a chains and the extracellular domains of 2β chains expressed with an additional C-terminal 10-His tag (R&D Systems catalogue number 305-GR-50) was injected during one minute on the second flowcell at a concentration of 10 μg/ml. […] [0638] 2—After the capture phase, either the running buffer was injected 5 times (90 s each injection) or a growing range of 5 concentrations of one of the six antibodies was injected (90 s each injection) on both flowcells. At the end of the fifth injection the running buffer was passed during 5 minutes in order to define the dissociation rate. [0639] 3—The surface was then generated with an injection of a 10 mM Glycine, HCl pH 1.5 buffer during 45 s.

The target of experiment [7] is T4, soluble recombinant cynomolgus IGF-1R hetero-tetramer with C-terminal 10-His tag (produced in house) (cynomolgus monkey).
T4 construct: domain: alpha chain;domain: extracellular domain of the beta chain; Produced in house; also called Macaca IGF-1R; soluble monkey IGF-1R ECD
Briefly: SPR Biacore X100, His-captured recombinant cynomolgus IGF-1R. The method, then: as §3, §4, §5

Experiment [8] concerns the target T3, human IGF-1R, native, on cells (MCF-7, …). Briefly: cell-based or functional assay. The source holds these as a separate data set.
The target is the same in experiment [9]. Briefly: cell-based or functional assay. This is another data set of the same source.
Experiment [10] deals with T2, monkey IGF-1R on COS-7 cells. The experiment is described as follows: FACS titration on COS-7 cells, 4 C, secondary antibody, MFI; EC50 table inside the plot.
The target of experiment [11] is T3, human IGF-1R, native, on cells (MCF-7, …). The experiment is described as follows: FACS titration on MCF-7 cells. On the procedure:
(§6) The binding properties of the humanized variants were evaluated by FACS analyses on the human MCF-7 breast adenocarcinoma cell line and the monkey cell line Cos-7 using increasing antibody concentrations. For that purpose, cells (1×10⁶ cells/ml) were incubated with anti-IGF-1R antibodies for 20 min. at 4° C. in FACS buffer (PBS, 0.1% BSA, 0.01% NaN3). They were then washed 3 times and incubated with the appropriate secondary antibody coupled with Alexa 488 for 20 additional minutes at 4° C. in the dark before being washed 3 times in FACS buffer. The binding of anti-IGF-1R antibodies was immediately performed on viable cells which were identified using propidium iodide (that stains dead cells). The EC₅₀ of binding expressed in molarity (M) was calculated using a nonlinear regression analysis (GraphPad Prims 4.0).

In experiment [12] the target is T5, human insulin receptor on cells (IM9 cells, hIR+ transfected cell line) (human, UniProt P06213 28-1382).
T5 construct: whole, on cells; also called human IR
Briefly: FACS titration on NIH 3T3 IR+ cells (human insulin receptor transfected), 4 C, secondary antibody, MFI.

The target in experiment [13] is T3, human IGF-1R, native, on cells (MCF-7, …). Briefly: FACS titration on MCF-7 cells, 4 C, secondary antibody, MFI; EC50 table inside the plot.
The target in experiment [14] is T2, monkey IGF-1R on COS-7 cells. Briefly: FACS titration on Cos-7 cells. On the procedure: as §6

B1: c208F2 (antibody, human IgG1, kappa, V domains shown)
VH: QVQLQQSGPELVKPGASVKMSCKASGYTFTSYYIYWVKQRPGQGLEWLGWIWPGDGSTKYNEKFKDKTTLTADKSSNTAYMFLSSLTSEDSAVYFCASPMITPNYAMDYWGQGASVTVSS
VL: DIQMTQTTSSLSASLGDRVTISCRASQDISKYLNWYQQQPDGTIKLLIYYTSRLHSGVPSRFSGRGSGTDYSLTISNVEQEDIATYFCQQGSTLPYTFGGGTKLEIKR
notes: also called chimeric 208F2; chimeric form of the 208F2 second IGF-1R antibody
In the case of B1, the “half-life of the complex” value in experiment [1] fell in the range of 2 to 3 h. The Kd in experiment [2] is 0.23 nM; in experiment [3] it was about 0.2 nM; in experiment [6], about 0.075 nM; in experiment [7] it was about 0.2 nM. In addition, the “% internalisation (monkey IGF-1R)” value in experiment [4] was determined as 67%. For the same molecule, the “ΔMFI (monkey IGF-1R internalization)” value in experiment [4] was determined as 52 MFI. The entries for the “ΔMFI (MCF-7, 10 µg/ml, 4 h)” value in experiment [5] and in [8] were 288 MFI and 278 MFI, respectively. For the same molecule, the “% internalization (MCF-7, 10 µg/ml, 4 h)” value in experiment [8] came out at 82%. Further, in experiment [9], the “phosphorylation of hIGF-1R, % of phosphorylation induced by IGF-1 (MCF-7 cells, 10 µg/ml)” value is under 10%.

B2: hz208F2 H026/L024 (antibody, human IgG1, kappa, V domains shown)
VH: QVQLVQSGAEVKKPGASVKMSCKASGYTFTSYYIYWVKQAPGQGLEWLGWIWPGDGSTKYNEKFQGRVTLTADKSSNTAYMFLSSLRSEDTAVYFCASPMITPNYAMDYWGQGTLVTVSS
VL: DIQMTQSPSSLSASVGDRVTISCRASQDISKYLNWYQQKPGKAPKLLIYYTSRLHSGVPSRFSGRGSGTDYSLTISNLQPEDFATYFCQQGSTLPYTFGGGTKVEIKR
notes: also called hz208F2 VH3/VL3; hz208F2 VH3VL3
As to B2, the “half-life of the complex” value in experiment [1] lay within 2 to 3 h. The EC50 worked out at 0.511 nM in experiment [10], 0.709 nM in experiment [11], 0.71 nM in experiment [13] and 0.51 nM in [14]. Besides, the binding result in [12] was “no binding (tested: log [M] about -7.2 (about 6e-8 M))”. The Kd in experiment [6] was about 0.06 nM. Besides, the “% internalization (MCF-7, 10 µg/ml, 4 h)” value in experiment [8] was determined as 87%. Further, the “ΔMFI (MCF-7, 10 µg/ml, 4 h)” value in experiment [8] is 344 MFI.
